According to the nanobody polyreactivity screen of Harvey et al. (2022):

Assay: yeast display, Sf9 membrane polyspecificity reagent, FACS + sequencing; frameworks hold sequencing errors
Procedure, shortened: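 A synthetic nanobody library was expressed on Saccharomyces cerevisiae BJ5465 by galactose induction for 36–48 hours. The library was stained for 1 hour at 4 °C with 10% biotinylated, detergent-solubilized Sf9 membrane reagent and enriched with streptavidin microbeads before FACS. Low and high (top ~1%) gates were set on anti-HA fluorescence for expression and streptavidin fluorescence for reagent binding, and each polyreactivity label reflects the gate of origin.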

| Sequence | polyreactivity (PSR sort gate) |
| --- | --- |
| QVQLVESGGGLVQAGGSLRLSCAASGIIFPYYAMGWYRQAPGKERELVAGISSSGGITYADSVKGRFTISRDNAKNTVYLQMNSLKPEDTAVYYCAARYPARGTLYYWGQGTQVTVSS | low polyreactivity |
| QVQLVESGGGLVQAGGSLRLSCAASGIIFPYYAMGWYRQAPGKERELVAGISWSGGSTYYADSVKGRFTISRDNAKNTVYLQMNSLKPEDTAVYYCAADYPATPDDDYWGQGTQVTVSS | high polyreactivity |
| QVQLVESGGGLVQAGGSLRLSCAASGIIFQAYAMGWYRQAPGKERELVAAISYSGGSTYYADSVKGRFTISRDNAKNTVYLQMNSLKPEDTAVYYCAATFYGYFDSVFSWGYYYWGQGTQVTVSS | low polyreactivity |
| QVQLVESGGGLVQAGGSLRLSCAASGIIFQAYDMGWYRQAPGKERELVAAISYSGGSTYYADSVKGRFTISRDNAKNTVYLQMNSQKPEDTAVYYCAATFYGYFDSVFSWGYYYCGQGTQVTVSS | low polyreactivity |
| QVQLVESGGGLVQAGGSLRLSCAASGIIFQFYAMGWYRQAPGKERELVAAISRSGGITHYADSVKGRFTISRDTAQNTVYLQMNSLKPEDTAVYYCAAVRQAYPRLDYWGQGTQVTVSS | high polyreactivity |
| QVQLVESGGGLVQAGGSLRLSCAASGIIFQFYAMVWYRQAPGKERELVAAISRSGGITHYADSVKGRFTISRDNAKNTVYLQMNILKPEDTAVYYCATRGTRSYFRTFYYWGQGTQVTVSS | high polyreactivity |
| QVQLVESGGGLVQAGGSLRLSCAASGIIFQGNAMGWYRQAPGKERELVAVITSRGGSTYYADSVKGRFTISRDNAKNTVYLQMNSLLPEDTAVYYCAKAKRYPQYYYWGQGTQVTVSS | high polyreactivity |
| QVQLVESGGGLVQAGGSLRLSCAASGIIFQNYDMGWYRQAPGKERELVAAITSGVSTYYADSVKGRFTIARYNAKNTVYLQMNSLKPEDTAVYYCAVVGGFRWIRMEYWGQGTQVTVSS | low polyreactivity |
| QVQLVESGGGLVQAGGSLRLSCAASGIIFQRNDMGWYRQAPGKEREFVAAITYIGGSTYYADSVKGRFTISRDNAKNTVYLQMNSLKPEDTAVYWGQGTQVTVSS | low polyreactivity |
| QVQLVESGGGLVQAGGSLRLSCAASGIIFQTYAMGWYRQAPGKERELVAAISRTGGSTYYADSVKGRFTISRDNAKITVYVQMHSLKPEDTAVYSCAAPRFAAPLRIGYVWGQVTQVTVSS | high polyreactivity |
| QVQLVESGGGLVQAGGSLRLSCAASGIIFQYYAMGGYRQAPGKERELVAAISWSGGSTYYADSVKGRFTISRDNAKNTVYLQMNSLKPEDTAVYYCAARSRSFWPYEGDYWGQGTQVTVSS | low polyreactivity |
| QVQLVESGGGLVQAGGSLRLSCAASGIIFRANAMGWYRQAPGKERELDAAISGRGSSTTYADSVKGRFTISRDNAKNTVYLQINSLKPEDTAVYYCAARLPYNNQVPGYYWGQGTQVTGSS | high polyreactivity |
| QVQLVESGGGLVQAGGSLRLSCAASGIIFRANAMGWYRQAPGKERELVAAISGRGSSTTYADSVKGRFTISRDNAKNTVYLQMNSLKPEDTAVYYCAAAGWSARGYNYWGQGTQVTVSS | high polyreactivity |
| QVQLVESGGGLVQAGGSLRLSCAASGIIFRANAMGWYRQAPGKERELVAAISGRGSSTTYADSVKGRFTISRDNAKNTVYLQMNSLKPEDTAVYYCAADTWYPGYYAYDYWGQGTQVTVSS | high polyreactivity |
| QVQLVESGGGLVQAGGSLRLSCAASGIIFRAYAMGWYRPAPGKERELVAAISRSGGSTYYADSVKGRFTISRDNAKNTVYLQMNSLKQEDTAVYYCAADTVWYLYYYWGQGSQVTVSS | high polyreactivity |
| QVQLVESGGGLVQAGGSLRLSCAASGIIFRFYSMGWYRQAPGKERELLAVITSRSDSTYYADSVKGRFTISRDNAKNTVYLQMNSLKPEDTAVYYCNARYPWYYRYSTYDYWGQGTQVTVSS | high polyreactivity |
| QVQLVESGGGLVQAGGSLRLSCAASGIIFRGNVMGWYRQAPGKERELVAAISGSGGRTYYADSVKGRFTISRDNAKNTVYLQMNSLKPEVTAVYYCNADKAIRYDYWGQGPQVTVSS | high polyreactivity |
| QVQLVESGGGLVQAGGSLRLSCAASGIIFRKNAMGWYRQAPGKERELVAAISSTGASTNYADSVKGRFTISRDNAKNTVYLQMNSLKPEDTAVYYCAASRTRYWKYDYWGQGTQVTVSS | high polyreactivity |
| QVQLVESGGGLVQAGGSLRLSCAASGIIFRNNAMGWYRQAPGKEREFVARISKRGGSTYYADSVKGRFTISRDNAKNTVYLQQNSLKPEDTAVYYCAKGYGSGSYLYDYWGQGTQVTVSS | high polyreactivity |
| QVQLVESGGGLVQAGGSLRLSCAASGIIFRPYAMGWYRQAPGKERELVAAISRGGRTKYADSVKGRFTISRDNAKNTVYLQMNSLKPEDTAVYYCAAQFRFTRLVGVAAEYDYGGQGTQVTVSS | low polyreactivity |
| QVQLVESGGGLVQAGGSLRLSCAASGIIFRPYAMGWYRQAPGKERELVAAITWSVTSTYYADSVKGRFTISRDNAKNTVYLQMNSLKPEDTAVYYCAATCSYGVSWYEYWGQGTQVTVSS | high polyreactivity |

| Sequence | polyreactivity (PSR sort gate) |
| --- | --- |
| QVQLVESGGGLVQAGGSLRLSCAASGIIFRRYARGWYRQAPGKERELVAAITRGGITYYADSVKGRFTISRDNAKNTVYLQMNSLKPEDTAVYYCAATYSGTYSLGGGYDYWGQGTQVTVSS | low polyreactivity |
| QVQLVESGGGLVQAGGSLRLSCAASGIIFRSYAMGWYRQAPGKERELVAGISRRGGSTYYADSVKGRFTISRDNAKNTVYLQMNSLKPEDTAVYYCAKEVAYKPTGYDYWGQGTQVTVSS | high polyreactivity |
| QVQLVESGGGLVQAGGSLRLSCAASGIIFRVYTMGWYRQAPGKERELVAGISSGDSTSYADSVKGRFTISRDNAKNTVYLQMNSLKPEDTEVYYCNADGKAGGDYDYWGQGTQVTVSS | low polyreactivity |
| QVQLVESGGGLVQAGGSLRLSCAASGIIFRWNAMGSYRQAPGKERELVAAITRSGGSTYYADSVKGRFTISRDNAKNTVYLQMNSLKPEDTAVYYCAAEYYAPRYKFDYWGQGTQVTVSS | high polyreactivity |
| QVQLVESGGGLVQAGGSLRLSCAASGIIFRWYAMGWYRQAPGKERELLAAITSSGGRTYYADSVKGRFTISRDNAKNTVYFQMNSLKPEDSAVYYCAASYYIVGWDPYDYWGQGTQVTVSS | high polyreactivity |
| QVQLVESGGGLVQAGGSLRLSCAASGIIFRWYTKGWSRPAPGKERELVAAINYSSGDTYADSEKGRFTISRDNAKNTVYLQMNILKPEDTAVYYCAAEDPEYATYWYKYGYWGQGTQVNVSS | low polyreactivity |
| QVQLVESGGGLVQAGGSLRLSCAASGIIFRYAMGWYRQAPGKERELVAAIRKSDGSTYYADSVKGRFTISRDNAKNTVYLQMNSLKPEDTAVYYCNAVTVGLYDYWGQGTQVTVSS | high polyreactivity |
| QVQLVESGGGLVQAGGSLRLSCAASGIIFRYAMGWYRQSPGKERELVARITVGSTYYADSVKGRFTISRDNAKNTVYLQMNSLKPEDTAVYYCNKDSGEDDRWPYDYWGQGTQVTVSS | low polyreactivity |
| QVQLVESGGGLVQAGGSLRLSCAASGIIFRYYAMGWYRQAPGKERELVAAISRSGARTYYADTVKGRFTISRDNAKNTVFLQRNSLKPEDTAVYYCATDPTSGRFYYWGQGTQVTVSS | high polyreactivity |
| QVQLVESGGGLVQAGGSLRLSCAASGIIFRYYTMGWYRQAPGKERELVAAISWGGGSTYYADSVKGRFTISRDYAKNTVYLQMNSLKPEDTAVYYCAAEGLTYYNYREWLYYYWGQGTQVTVSS | high polyreactivity |
| QVQLVESGGGLVQAGGSLRLSCAASGIIFSEYAMGWNRKAPGKERELVAAISKSGGRTYYADSVKGRFTISRDNAKNTVYLQMNSLKPEDTAVYYCAARHAPILGDHGMKYWGQGTQVTVSS | high polyreactivity |
| QVQLVESGGGLVQAGGSLRLSCAASGIIFSEYAMGWYRQAPGKERELVAAISKSGGRTYYADSVKGRFTISRDNAKNTVYLQMNSLKPEDTAVYYCAARHAPILGDHGDYDYWGQGTQVTVSS | high polyreactivity |
| QVQLVESGGGLVQAGGSLRLSCAASGIIFSFYAMGWYRQAPGKERELVADITLSGGRTYYADSVKGRFTISRDNAKNTVYLQMNSLKPEDTAVYYCNADTYERGDYWGQGTQVTVSS | high polyreactivity |
| QVQLVESGGGLVQAGGSLRLSCAASGIIFSGNAMGWYRQAPGKERELVAAITRGGRTYYADSVKGRFTISRDNAKNTVFFQFNSLKPEDTAVYYCGAGYPYSYREYYYWGQGSQVTVSS | high polyreactivity |
| QVQLVESGGGLVQAGGSLRLSCAASGIIFSGNAMGWYRQAPGKERELVAAITRGGRTYYADSVKGRFTISRDNAKNTVYLQMNSLKPEDTAVYYCAAGYPYSYRDYYYWGQGTQVTVSS | high polyreactivity |
| QVQLVESGGGLVQAGGSLRLSCAASGIIFSGYAMGWYRQAPGKERELVAVISSSGGGTYYADSVKGRFTISRDKAKNTVYLQMNSLIPEDTAVYYCAARGREAIHGYWGQGTQVTLSS | high polyreactivity |
| QVQLVESGGGLVQAGGSLRLSCAASGIIFSGYVMGWYRQAPGKERELVAAIRWNGGNTYYADSVKGRFTISRDNAKNTVYLQMNSLKPEDTAVYYCAGRVRRPYSSLDYWGQGSQVTVSS | high polyreactivity |
| QVQLVESGGGLVQAGGSLRLSCAASGIIFSIYVMGWYRQAPGKERELVAAISSNGGSTYYADSVKGRFTISRDNAKNTVYLQMNSLKPEDTAVYYCAAVSRSHYYYWGQGTQVTVSS | high polyreactivity |
| QVQLVESGGGLVQAGGSLRLSCAASGIIFSKYAMGWYRQAPGKERELVARISWRGGDTYYADSVKGRFTISRDNAKNTVYLQMNSLKPEDTAVYYCNARIWGRYFSYTRFDYWGQGTQVTVSS | high polyreactivity |
| QVQLVESGGGLVQAGGSLRLSCAASGIIFSLKTMGGYRQAPGKERELVAAISSSGGSTYYADSVKGRFTISRDNAKNCVYVQMNSLKPEDTAVYYCARRYAPNTSLTFYYWGQGTQVTVSS | low polyreactivity |
